Experimental data taken from patent US20260184748A1 (University of Pennsylvania, published 2026).
Where no end group is shown, it is not given here.

How the values were obtained:
Assay in all cases: cell-based or functional assay
[1] = biological target: T1, HTR2C (UniProt P28335 33-458, limits assumed)
T1 sequence (looked up): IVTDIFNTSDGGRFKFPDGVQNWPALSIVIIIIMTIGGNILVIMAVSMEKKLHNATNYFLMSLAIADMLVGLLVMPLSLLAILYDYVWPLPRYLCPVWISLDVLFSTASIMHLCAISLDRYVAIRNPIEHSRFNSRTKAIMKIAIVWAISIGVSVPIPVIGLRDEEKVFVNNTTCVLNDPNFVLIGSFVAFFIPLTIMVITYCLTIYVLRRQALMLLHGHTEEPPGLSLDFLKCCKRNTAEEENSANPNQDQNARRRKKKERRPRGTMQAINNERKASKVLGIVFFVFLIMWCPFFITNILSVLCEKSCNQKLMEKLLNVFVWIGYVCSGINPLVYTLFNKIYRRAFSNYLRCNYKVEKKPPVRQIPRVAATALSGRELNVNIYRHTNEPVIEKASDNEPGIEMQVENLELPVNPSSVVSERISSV

[2] = biological target: KISS1R (UniProt Q969F8 1-398)
[3] = biological target: MC1R (UniProt Q01726 1-317)
[4] = biological target: MRGPRX1 (UniProt Q96LB2 1-322)
[5] = biological target: P2RY1 (UniProt P47900 1-373)
[6] = biological target: T2, P2RY11 (UniProt Q96G91 1-374)
T2 sequence (looked up): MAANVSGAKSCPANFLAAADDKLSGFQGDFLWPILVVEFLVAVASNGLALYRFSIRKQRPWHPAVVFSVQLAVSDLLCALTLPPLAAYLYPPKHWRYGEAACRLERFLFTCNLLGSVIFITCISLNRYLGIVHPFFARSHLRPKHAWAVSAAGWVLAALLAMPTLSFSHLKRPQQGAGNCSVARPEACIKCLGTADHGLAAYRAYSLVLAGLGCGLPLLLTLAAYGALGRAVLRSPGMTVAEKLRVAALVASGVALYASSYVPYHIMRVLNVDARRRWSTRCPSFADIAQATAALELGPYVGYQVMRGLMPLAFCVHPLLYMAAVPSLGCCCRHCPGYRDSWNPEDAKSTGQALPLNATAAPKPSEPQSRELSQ

[7] = biological target: P2RY12 (UniProt Q9H244 1-342)
[8] = biological target: PTAFR (UniProt P25105 1-342)
[9] = biological target: TACR1 (UniProt P25103 1-407)
[10] = biological target: T3, UTR2 (UniProt Q9UKP6 1-389)
T3 sequence (looked up): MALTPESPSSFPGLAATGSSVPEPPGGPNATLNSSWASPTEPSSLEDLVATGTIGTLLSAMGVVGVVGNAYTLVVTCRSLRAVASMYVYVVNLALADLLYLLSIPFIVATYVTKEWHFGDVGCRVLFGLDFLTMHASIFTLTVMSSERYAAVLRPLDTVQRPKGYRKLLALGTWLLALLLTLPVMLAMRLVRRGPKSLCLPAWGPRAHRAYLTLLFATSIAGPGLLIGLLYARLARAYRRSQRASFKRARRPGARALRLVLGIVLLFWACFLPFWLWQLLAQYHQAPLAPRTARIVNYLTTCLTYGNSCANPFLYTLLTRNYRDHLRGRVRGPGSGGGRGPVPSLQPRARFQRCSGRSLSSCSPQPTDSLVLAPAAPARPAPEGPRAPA

[11] = biological target: DRD5 (UniProt P21918 1-477)
[12] = biological target: EBI2 (UniProt P32249 1-361)
[13] = biological target: EDG3 (UniProt Q99500 1-378)
[14] = biological target: T4, EDG7 (UniProt Q9UBY5 1-353)
T4 sequence (looked up): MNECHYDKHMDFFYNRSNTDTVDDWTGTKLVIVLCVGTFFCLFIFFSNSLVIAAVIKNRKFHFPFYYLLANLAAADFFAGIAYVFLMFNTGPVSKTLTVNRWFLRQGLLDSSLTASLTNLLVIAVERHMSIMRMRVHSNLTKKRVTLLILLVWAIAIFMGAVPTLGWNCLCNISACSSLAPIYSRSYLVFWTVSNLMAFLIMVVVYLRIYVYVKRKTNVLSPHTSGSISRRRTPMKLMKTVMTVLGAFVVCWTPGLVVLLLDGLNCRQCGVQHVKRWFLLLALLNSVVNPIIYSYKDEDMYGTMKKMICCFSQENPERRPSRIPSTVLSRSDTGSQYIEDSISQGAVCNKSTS

[15] = biological target: FFAR1 (UniProt O14842 1-300)
[16] = biological target: T5, GPR103 (UniProt Q96P65 1-431)
T5 sequence (looked up): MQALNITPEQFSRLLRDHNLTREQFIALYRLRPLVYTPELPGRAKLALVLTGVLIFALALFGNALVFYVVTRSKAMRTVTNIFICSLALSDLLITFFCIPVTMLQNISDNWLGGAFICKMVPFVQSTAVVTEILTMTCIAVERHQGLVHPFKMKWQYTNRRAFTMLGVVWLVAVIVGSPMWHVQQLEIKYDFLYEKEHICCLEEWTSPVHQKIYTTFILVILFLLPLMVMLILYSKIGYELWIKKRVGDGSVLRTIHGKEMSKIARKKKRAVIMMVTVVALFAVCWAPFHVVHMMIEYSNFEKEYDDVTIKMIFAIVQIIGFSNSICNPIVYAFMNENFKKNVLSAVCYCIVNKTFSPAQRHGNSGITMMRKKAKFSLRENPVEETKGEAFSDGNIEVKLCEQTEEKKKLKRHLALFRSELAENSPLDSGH

[17] = biological target: ADRB1 (UniProt P08588 1-477)
Chain of ADRB1 (P08588 whole entry): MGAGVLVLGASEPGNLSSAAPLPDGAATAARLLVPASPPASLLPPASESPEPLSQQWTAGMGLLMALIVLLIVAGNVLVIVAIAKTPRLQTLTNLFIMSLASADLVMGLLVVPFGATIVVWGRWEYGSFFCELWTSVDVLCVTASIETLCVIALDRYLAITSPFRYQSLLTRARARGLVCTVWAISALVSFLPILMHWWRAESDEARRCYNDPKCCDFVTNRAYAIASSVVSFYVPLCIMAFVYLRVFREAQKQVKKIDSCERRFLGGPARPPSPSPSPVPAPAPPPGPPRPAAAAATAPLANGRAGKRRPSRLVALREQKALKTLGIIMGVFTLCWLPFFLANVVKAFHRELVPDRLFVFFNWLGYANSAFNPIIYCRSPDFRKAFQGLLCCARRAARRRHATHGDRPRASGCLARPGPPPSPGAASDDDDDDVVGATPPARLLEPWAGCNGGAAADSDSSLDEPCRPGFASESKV

Chain of MRGPRX1 (Q96LB2 whole entry): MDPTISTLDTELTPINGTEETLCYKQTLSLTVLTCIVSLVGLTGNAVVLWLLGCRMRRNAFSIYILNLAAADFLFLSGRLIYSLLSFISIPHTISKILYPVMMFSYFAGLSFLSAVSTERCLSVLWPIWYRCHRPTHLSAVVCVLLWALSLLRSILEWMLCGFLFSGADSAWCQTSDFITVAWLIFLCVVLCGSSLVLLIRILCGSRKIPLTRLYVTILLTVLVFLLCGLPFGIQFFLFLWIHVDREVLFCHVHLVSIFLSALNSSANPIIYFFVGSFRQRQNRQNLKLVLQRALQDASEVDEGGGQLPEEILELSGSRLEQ
Chain of MC1R (Q01726 whole entry): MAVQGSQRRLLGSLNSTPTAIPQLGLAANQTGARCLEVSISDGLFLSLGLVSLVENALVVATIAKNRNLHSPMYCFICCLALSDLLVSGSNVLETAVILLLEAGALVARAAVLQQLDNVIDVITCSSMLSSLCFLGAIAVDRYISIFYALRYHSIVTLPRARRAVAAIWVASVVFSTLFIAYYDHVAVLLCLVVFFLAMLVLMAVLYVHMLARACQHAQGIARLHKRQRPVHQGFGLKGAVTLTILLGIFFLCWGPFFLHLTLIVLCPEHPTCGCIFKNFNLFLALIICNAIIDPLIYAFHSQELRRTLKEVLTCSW
Chain of PTAFR (P25105 whole entry): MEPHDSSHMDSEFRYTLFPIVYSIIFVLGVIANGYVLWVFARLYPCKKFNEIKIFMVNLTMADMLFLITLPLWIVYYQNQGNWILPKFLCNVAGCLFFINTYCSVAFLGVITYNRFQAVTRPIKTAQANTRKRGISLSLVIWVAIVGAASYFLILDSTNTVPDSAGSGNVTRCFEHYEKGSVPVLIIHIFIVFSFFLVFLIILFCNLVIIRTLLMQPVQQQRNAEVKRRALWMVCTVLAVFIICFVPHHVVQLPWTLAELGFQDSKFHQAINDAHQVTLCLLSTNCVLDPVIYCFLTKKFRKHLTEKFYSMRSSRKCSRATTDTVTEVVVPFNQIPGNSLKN
Chain of TACR1 (P25103 whole entry): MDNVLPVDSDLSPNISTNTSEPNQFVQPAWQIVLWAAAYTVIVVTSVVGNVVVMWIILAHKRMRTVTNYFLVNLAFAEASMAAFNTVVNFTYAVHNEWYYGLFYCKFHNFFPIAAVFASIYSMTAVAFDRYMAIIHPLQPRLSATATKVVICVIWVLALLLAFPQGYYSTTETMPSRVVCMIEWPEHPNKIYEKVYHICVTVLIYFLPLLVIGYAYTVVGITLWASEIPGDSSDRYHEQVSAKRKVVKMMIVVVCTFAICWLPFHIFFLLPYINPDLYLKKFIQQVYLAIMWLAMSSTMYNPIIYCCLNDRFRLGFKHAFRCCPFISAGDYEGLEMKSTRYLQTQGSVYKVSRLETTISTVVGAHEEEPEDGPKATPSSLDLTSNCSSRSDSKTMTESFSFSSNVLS
Chain of FFAR1 (O14842 whole entry): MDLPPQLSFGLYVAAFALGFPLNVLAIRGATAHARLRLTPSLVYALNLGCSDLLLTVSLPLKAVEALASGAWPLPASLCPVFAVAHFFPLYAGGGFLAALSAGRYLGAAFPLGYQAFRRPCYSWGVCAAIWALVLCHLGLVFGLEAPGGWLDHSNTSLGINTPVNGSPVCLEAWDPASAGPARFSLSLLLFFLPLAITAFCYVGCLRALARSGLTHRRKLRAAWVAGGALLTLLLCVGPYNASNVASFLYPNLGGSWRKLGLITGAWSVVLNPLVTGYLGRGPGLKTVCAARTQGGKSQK
Chain of P2RY12 (Q9H244 whole entry, one chain of several): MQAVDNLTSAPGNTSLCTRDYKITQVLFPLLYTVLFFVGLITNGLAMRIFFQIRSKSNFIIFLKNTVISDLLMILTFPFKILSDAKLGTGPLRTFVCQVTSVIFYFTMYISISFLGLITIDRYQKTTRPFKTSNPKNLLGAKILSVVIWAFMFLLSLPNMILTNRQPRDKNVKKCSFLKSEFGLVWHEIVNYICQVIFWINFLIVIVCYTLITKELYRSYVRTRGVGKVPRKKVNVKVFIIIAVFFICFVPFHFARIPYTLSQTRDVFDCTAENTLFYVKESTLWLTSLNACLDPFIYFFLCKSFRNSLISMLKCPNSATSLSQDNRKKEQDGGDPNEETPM
Chain of KISS1R (Q969F8 whole entry): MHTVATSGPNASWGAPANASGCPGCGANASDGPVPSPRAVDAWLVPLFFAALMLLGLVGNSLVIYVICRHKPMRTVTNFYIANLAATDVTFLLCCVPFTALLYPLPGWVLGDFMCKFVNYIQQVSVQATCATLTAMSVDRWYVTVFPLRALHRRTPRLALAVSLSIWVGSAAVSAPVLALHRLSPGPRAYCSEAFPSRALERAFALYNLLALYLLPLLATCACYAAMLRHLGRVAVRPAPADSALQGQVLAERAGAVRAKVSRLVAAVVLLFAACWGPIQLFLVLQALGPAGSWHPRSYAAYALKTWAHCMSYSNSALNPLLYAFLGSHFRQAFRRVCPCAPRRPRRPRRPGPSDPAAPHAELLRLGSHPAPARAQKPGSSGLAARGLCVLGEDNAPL
Chain of EBI2 (P32249 whole entry): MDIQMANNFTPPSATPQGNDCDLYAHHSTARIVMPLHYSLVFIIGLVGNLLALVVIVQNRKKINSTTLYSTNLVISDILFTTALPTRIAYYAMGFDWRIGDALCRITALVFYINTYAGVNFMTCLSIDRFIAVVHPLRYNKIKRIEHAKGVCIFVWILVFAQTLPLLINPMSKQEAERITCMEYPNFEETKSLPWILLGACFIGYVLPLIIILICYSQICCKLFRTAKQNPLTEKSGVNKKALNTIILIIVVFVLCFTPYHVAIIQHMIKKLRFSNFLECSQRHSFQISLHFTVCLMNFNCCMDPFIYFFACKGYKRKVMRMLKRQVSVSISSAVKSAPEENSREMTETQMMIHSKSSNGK
Chain of DRD5 (P21918 whole entry): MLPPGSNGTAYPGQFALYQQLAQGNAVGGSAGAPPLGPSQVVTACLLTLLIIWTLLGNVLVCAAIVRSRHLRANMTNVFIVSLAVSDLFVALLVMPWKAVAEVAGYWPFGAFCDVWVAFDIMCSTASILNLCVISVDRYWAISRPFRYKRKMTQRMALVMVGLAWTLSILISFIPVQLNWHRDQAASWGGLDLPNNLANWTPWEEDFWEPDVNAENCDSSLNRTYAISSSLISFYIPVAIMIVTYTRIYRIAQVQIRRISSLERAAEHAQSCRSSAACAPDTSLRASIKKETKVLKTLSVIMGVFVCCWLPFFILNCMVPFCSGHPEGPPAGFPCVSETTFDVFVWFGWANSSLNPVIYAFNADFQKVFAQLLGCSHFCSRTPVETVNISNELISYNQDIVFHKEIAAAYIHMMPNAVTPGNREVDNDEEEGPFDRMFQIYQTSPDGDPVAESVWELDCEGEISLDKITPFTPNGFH
Chain of EDG3 (Q99500 whole entry): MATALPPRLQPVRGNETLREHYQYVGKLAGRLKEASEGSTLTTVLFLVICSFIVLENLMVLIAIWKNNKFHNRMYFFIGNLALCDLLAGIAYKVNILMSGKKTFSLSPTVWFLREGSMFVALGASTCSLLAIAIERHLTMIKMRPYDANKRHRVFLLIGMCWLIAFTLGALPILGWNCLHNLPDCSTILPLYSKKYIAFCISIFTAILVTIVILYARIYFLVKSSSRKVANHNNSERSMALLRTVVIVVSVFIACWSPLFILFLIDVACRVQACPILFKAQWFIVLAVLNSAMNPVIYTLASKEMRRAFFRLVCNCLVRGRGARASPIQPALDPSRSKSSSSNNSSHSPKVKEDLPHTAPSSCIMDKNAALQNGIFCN
Chain of P2RY1 (P47900 whole entry): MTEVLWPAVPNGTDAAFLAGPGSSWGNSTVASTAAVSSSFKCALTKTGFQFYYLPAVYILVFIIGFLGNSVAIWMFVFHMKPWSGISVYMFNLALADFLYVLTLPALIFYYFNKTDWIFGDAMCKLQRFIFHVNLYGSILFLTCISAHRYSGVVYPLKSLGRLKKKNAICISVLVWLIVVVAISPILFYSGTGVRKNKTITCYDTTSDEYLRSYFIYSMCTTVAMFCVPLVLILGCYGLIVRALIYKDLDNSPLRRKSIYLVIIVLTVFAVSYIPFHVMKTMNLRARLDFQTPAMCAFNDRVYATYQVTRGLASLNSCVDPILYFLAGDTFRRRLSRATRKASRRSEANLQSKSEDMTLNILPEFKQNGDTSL

## QATVGDVNTDRPGLLDLK (also: synthesised on Rink amide resin, C-terminal amide not given here outright) [octadecaneuropeptide (ODN)]
[1]
  % Activity, arrestin, antagonist mode, 2.5 uM: 2.2%
[2]
  % Activity, arrestin, antagonist mode, 2.5 uM: 13.2%
[3]
  % Activity, arrestin, antagonist mode, 2.5 uM: 0.4%
[4]
  % Activity, arrestin, antagonist mode, 2.5 uM: 3.8%
[5]
  % Activity, arrestin, antagonist mode, 2.5 uM: -6.4%
[6]
  % Activity, arrestin, antagonist mode, 2.5 uM: -5.6%
[7]
  % Activity, arrestin, antagonist mode, 2.5 uM: -11%
[8]
  % Activity, arrestin, antagonist mode, 2.5 uM: -7.3%
[9]
  % Activity, arrestin, antagonist mode, 2.5 uM: -17.6%
[10]
  % Activity, arrestin, antagonist mode, 2.5 uM: -27.2%
[11]
  % Activity, arrestin, antagonist mode, 2.5 uM: 4.2%
[12]
  % Activity, arrestin, antagonist mode, 2.5 uM: -27.3%
[13]
  % Activity, arrestin, antagonist mode, 2.5 uM: 15.4%
[14]
  % Activity, arrestin, antagonist mode, 2.5 uM: 5%
[15]
  % Activity, arrestin, antagonist mode, 2.5 uM: -3.9%
[16]
  % Activity, arrestin, antagonist mode, 2.5 uM: 14.6%
[17]
  % Activity, arrestin, antagonist mode, 2.5 uM: 12.6%
